Results from paper PMC7480081.

Target: T1, Csa3b (Sulfolobus islandicus REY15A) (UniProt F0NH47)
T1 sequence: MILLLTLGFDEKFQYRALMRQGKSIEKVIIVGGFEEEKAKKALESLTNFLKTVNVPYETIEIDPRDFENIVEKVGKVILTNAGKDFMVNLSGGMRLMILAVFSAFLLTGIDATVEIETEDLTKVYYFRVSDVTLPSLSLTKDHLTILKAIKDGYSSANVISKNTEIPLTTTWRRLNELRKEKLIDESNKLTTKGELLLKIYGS
Test: LSPR
Conditions: DNA immobilized, LSPR (OpenSPR, COOH chip, 20 uL/min, 5 min, 1:1 fit; running buffer not stated), DNase I footprinting: 400 ng probe in 40 uL, 30 min at 30 C, DNase I 1 min at …

Substance | Kd (20 uM 5'-CAAAA-3') [nM] | Kd (no CAAAA) [nM] | Kd [nM]
csa1 promoter, full-length (LSPR) | 300 | 4240 | –
cmr4 (cmr4-alpha) promoter (LSPR) | – | – | 17.2
